Data taken from patent publication US20230210927A1.

Target: E1B55K protein (adenovirus early region 1B-55 kDa) (adenovirus type 5) (UniProt P03243)
Experiment: cell-based or functional assay

Sequence of UniProt P03243 (P03243 whole entry): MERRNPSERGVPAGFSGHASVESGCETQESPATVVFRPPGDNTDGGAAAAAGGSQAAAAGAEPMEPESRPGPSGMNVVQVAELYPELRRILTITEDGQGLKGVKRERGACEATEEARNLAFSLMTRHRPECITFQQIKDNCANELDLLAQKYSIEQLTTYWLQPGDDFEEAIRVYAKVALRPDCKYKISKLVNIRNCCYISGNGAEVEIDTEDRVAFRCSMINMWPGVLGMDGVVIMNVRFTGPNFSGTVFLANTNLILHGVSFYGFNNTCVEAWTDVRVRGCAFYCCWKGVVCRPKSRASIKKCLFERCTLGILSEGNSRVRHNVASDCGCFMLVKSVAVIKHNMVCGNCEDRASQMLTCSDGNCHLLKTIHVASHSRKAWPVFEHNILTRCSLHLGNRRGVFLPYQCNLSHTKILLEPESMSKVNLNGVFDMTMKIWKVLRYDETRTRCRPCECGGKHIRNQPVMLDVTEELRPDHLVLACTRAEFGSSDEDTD

Substance: E4orf6 protein (adenovirus)
- luminescence intensity due to luciferase activity (pGL2-p53 promoter, Dual-Luciferase Reporter Assay) in the MSC-TERT-tetoneE1B55K cell line with doxycycline; 4-fold increase with E1B55K alone: < 1.5 fold
